From publication PMC10163345 (2023)
Where no end group is shown, it is not given here.

Target: constitutively active truncated His-tagged WT calcineurin (6×His–CNAαWT:CNB) (Homo sapiens (Human),Homo sapiens …, UniProt Q08209,P63098)
Assay: His-tag pulldown + immunoblot

constitutively active truncated His-tagged WT calcineurin (6×His–CNAαWT:CNB), sequence (Q08209 1-392, one chain of several): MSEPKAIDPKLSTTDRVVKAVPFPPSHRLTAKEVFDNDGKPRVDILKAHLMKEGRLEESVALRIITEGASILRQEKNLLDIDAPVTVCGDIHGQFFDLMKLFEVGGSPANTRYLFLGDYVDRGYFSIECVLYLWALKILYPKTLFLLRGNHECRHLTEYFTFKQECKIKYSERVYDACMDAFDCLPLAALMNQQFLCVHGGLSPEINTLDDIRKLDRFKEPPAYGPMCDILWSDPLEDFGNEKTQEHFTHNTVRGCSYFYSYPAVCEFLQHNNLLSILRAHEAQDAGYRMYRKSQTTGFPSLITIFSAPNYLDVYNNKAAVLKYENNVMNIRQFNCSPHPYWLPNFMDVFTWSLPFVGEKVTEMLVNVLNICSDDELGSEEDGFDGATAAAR

binding result: binds
B1: GST-tagged POC5 PxIxIT peptide (POC5 PDVRIS) (protein)
chain: KGELVPDVRISTIHDI
modifications: also: GST-tagged fusion
